In US12162911B2, “Pulmonary administration of pyocins for treating bacterial respiratory infections” (priority 2014, dated 2024):

Assays:
P. aeruginosa P8 = assay: Mouse model of acute lung infection, P. aeruginosa P8; assay type: in vivo, Pseudomonas aeruginosa; conditions: for survival: 300 μg ml^−1 and 30 μg ml^−1 (both concentrations), endpoint 24 h post-infection; for reduction of bacterial load in lung: 3 mg ml^−1 intranasal 1 h post-infection, culled 4.5 h post-infection (FIG. 1c); for reduction of bacterial numbers in lung: C57/BL6 mice, 3 mg ml^−1 intranasal 6 h pre-infection, culled 4 h post-infection (FIG. 1a); for Lowest active concentration tested: lowest concentration tested with which the treated mice survived to 24 h; for Corresponding molarity: molarity of lowest active concentration tested
Description: Study design. […] For all experiments 6 week-old, female, murine pathogen free C57/BL6 mice weighing 15-21 g were used (Charles Rivers Laboratories, UK). All mice received food and water ad libitum and were housed in groups during the experiments. Power calculations were used to predetermine sample size (n=6, for all treatment experiments). Mice were culled when required as determined by a scoring system or culled at the pre-determined 24 h time point. All mice, including outliers were included in the statistical analysis. Experiments were either carried out once only or repeated once (defined for each experiment).
(§1) Model of acute lung infection. Female C57/BL6 mice were inoculated intranasally with 25 μl of bacterial culture containing approximately 10^7 CFU of the selected P. aeruginosa strain^36. Antibiotic treatments were administered at either 6 h pre-infection or 1 h post-infection and were administered only once. Pyocins or tobramycin dissolved in PBS were administered via intranasal administration as described above. Two different end-points were used in these experiments. In order to determine a reduction in the bacterial load of the lungs compared to the untreated controls, all mice in the experiment were culled by carbon dioxide asphyxiation at the same time; 4-6 h post infection. To determine if mice could survive infection after pyocin or tobramycin treatment, mice were monitored closely, culled by carbon dioxide asphyxiation when required as determined by a scoring system or culled at the pre-determined 24 h time point. Uninfected mice, treated with pyocins, were used as controls in the first series of experiments in order to ensure no adverse effects from pyocin treatment. These controls were stopped in later experiments in order to reduce the number of animals used, once it was clear that the pyocins were not harmful. For CFU determination, lungs were removed aseptically and kept on ice in 750 μl of PBS until homogenised. Serial 10-fold dilutions of the homogenised lung were plated on Pseudomonas selective agar (20 g peptone, 1.5 g K2HPO4, 1.5 g MgSO4·7H2O, 10 ml glycerol, 15 g agar, 0.025 g Irgasan per litre) and incubated at 37° C. for 24 h and then room temperature for 24 h before the colonies were counted.

P. aeruginosa P17 = assay: Mouse model of acute lung infection, P. aeruginosa P17; assay type: in vivo, Pseudomonas aeruginosa; conditions: for survival / protection: pyocin 3 mg ml^−1, endpoint 24 h, infected controls culled at 4 h
Description: as §1
(§2) Since strains of P. aeruginosa are phenotypically diverse, we tested the efficacy of the pyocins against three additional isolates: P. aeruginosa P17 and P. aeruginosa P5 (mucoid), both from cystic fibrosis patients and P. aeruginosa E2, an environmental isolate. Pyocin S2 was not active against P. aeruginosa P5 or P. aeruginosa E2 in vitro therefore was not used to treat these strains in vivo and similarly pyocin L1 was not used against P. aeruginosa P17. […] Lung homogenates from P. aeruginosa E2-infected AP41-treated mice contained high levels of viable bacteria, reduced only 10-fold relative to control mice (Table 1). […] Thus, pyocins show strong efficacy against diverse strains of P. aeruginosa with pyocin S5 treatment displaying the largest effect on reducing bacterial load.

P8AP41T [1] = assay: Mouse model of acute lung infection, AP41 tolerant strain P8AP41T; assay type: in vivo, Pseudomonas aeruginosa; conditions: 3 mg ml^−1 1 h post-infection; for bacterial numbers in lung homogenates: 24 h (FIG. 3b); for survival: endpoint 24 h, PBS controls culled 6 h post-infection (FIG. 3b)
Description: as §1
(§3) In order to determine if pyocin tolerance or resistance was acquired upon pyocin treatment in vivo, viable bacteria recovered from mice that survived infection to the 24 h end-point, in all experiments discussed in this work, were tested for pyocin susceptibility. From these experiments no pyocin resistant colonies were isolated. […] Importantly, sensitivity to pyocins S5 and L1 were unaffected in vitro in this pyocin AP41-tolerant strain (FIG. 3a) and this was also shown to be the case in vivo when mice were infected with P8AP41T.

P. aeruginosa P5 = assay: Pyocin activity in vitro against P. aeruginosa P5; assay type: cell-based, Pseudomonas aeruginosa
Description: (§4) Pyocin sensitivity assays: overlay spot plate method. Soft agar overlay spot plates were performed using the method of ^35. 150 μl of test strain culture at OD600 nm=0.6 was added to 6 ml of 0.8% soft agar and poured over an LB agar plate. 5 μl of bacteriocin, lung homogenate or blood at varying concentrations was spotted onto the plates and incubated for 24 h at 37° C.
(§5) Since strains of P. aeruginosa are phenotypically diverse, we tested the efficacy of the pyocins against three additional isolates: P. aeruginosa P17 and P. aeruginosa P5 (mucoid), both from cystic fibrosis patients and P. aeruginosa E2, an environmental isolate.

P. aeruginosa E2 [2] = assay: Pyocin activity in vitro against P. aeruginosa E2; assay type: cell-based
Description: as §4, §5

P. aeruginosa = conditions: in vivo; cited from earlier work
[3] = test system: P. aeruginosa P5 (mucoid); assay: Mouse model of acute lung infection, P. aeruginosa P5; assay type: in vivo, Pseudomonas aeruginosa
Description: as §1, §2

P. aeruginosa E2 [4] = assay: Mouse model of acute lung infection, P. aeruginosa E2; assay type: in vivo, Pseudomonas aeruginosa
Description: as §1, §2

P8AP41T [5] = assay: Pyocin sensitivity in vitro (spot tests) of strain P8AP41T; assay type: cell-based, Pseudomonas aeruginosa
Description: as §4, §3

[6] = test system: collection of diverse environmental and clinical isolates; assay: Activity against a collection of diverse environmental and clinical isolates; assay type: cell-based, Pseudomonas aeruginosa
[7] = pyocin 3 mg ml^−1, treated mice survived to 24 h, no treatment 4.4 × 10^5 CFU/lung

| Molecule | survival (P. aeruginosa P8) | reduction of bacterial load in lung (P. aeruginosa P8) [fold] | reduction of bacterial numbers in lung (P. aeruginosa P8) | Lowest active concentration tested (P. aeruginosa P8) [µg/mL] | Corresponding molarity (P. aeruginosa P8) [nM] | survival / protection (P. aeruginosa P17) | bacterial count in lung, P17 (P. aeruginosa P17; [7]) | bacterial numbers in lung homogenates (P8AP41T [1]) | survival (P8AP41T [1]) | further results |
| --- | --- | --- | --- | --- | --- | --- | --- | --- | --- | --- |
| Pyocin S2: S-type pyocin, SEQ ID NO: 1; targeting domain binds FpvAI, effector has DNase activity (protein, listed as Pseudomonas aeruginosa) MAVNDYEPGSMVITHVQGGGRDIIQYIPARSSYGTPPFVPPGPSPYVGTGMQEYRKLRSTLDKSHSELKKNLKNETLKEVDELKSEAGLPGKAVSANDIRDEKSIVDALMDAKAKSLKAIEDRPANLYTASDFPQKSESMYQSQLLASRKFYGEFLDRHMSELAKAYSADIYKAQIAILKQTSQELENKARSLEAEAQRAAAEVEADYKARKANVEKKVQSELDQAGNALPQLTNPTPEQWLERATQLVTQAIANKKKLQTANNALIAKAPNALEKQKATYNADLLVDEIASLQARLDKLNAETARRKEIARQAAIRAANTYAMPANGSVVATAAGRGLIQVAQGAASLAQAISDAIAVLGRVLASAPSVMAVGFASLTYSSRTAEQWQDQTPDSVRYALGMDAAKLGLPPSVNLNAVAKASGTVDLPMRLTNEARGNTTTLSVVSTDGVSVPKAVPVRMAAYNATTGLYEVTVPSTTAEAPPLILTWTPASPPGNQNPSSTTPVVPKPVPVYEGATLTPVKATPETYPGVITLPEDLIIGFPADSGIKPIYVMFRDPRDVPGAATGKGQPVSGNWLGAASQGEGAPIPSQIADKLRGKTFKNWRDFREQFWIAVANDPELSKQFNPGSLAVMRDGGAPYVRESEQAGGRIKIEIHHKVRIADGGGVYNMGNLVAVTPKRHIEIHKGGK | survived until the endpoint of the experiment at 24 h post-infection | ~80 | approximately 25 fold | 30 | 358 | survived until the 24 h endpoint | No colonies | significantly reduced bacterial numbers | survived until the endpoint of the experiment at 24 h | activity in vitro (P. aeruginosa P5): not active; activity in vitro (P. aeruginosa E2 [2]): not active; activity in an invertebrate model of infection (P. aeruginosa): active |
| Pyocin AP41: S-type pyocin, SEQ ID NO: 18; effector has DNase activity (protein, listed as Pseudomonas aeruginosa) MSDVFDLGSMTTVATATGQYSFYTPPPPTPIPYLTYIARPGINKFDLPEGAKIKDLIKRYQYIGSQIPAAIMIRGVQEEIKKSTNTALANVGAIVDGELAYLASQKKEKLNPAEATPLQMASAEKAAAVELLASKQKELADARTIANAFFGYDPLTVNYVNVMNEIYGRREDKDFSFDNWSKSYSAAQKIRLIEAKISVLNSRSSALDGKVAELTRLQRLEDAQHAAEAARQTEAERLAQEQRQAEARRQAEEARRQAEAQRQAELQRLAEAEAKRVAEAEKKRQDEINARLQAIVVSESEAKRIEEIYKRLEEQDKISNPTVTTPPAVDAGSRVDDALAHTGTRVTSGGETGATGGSGRDVDTGTGQGGITARPVDVGSVSIPDRRDPKIPDQPRRDLGSLVPTFPDFPTFPSFPGVGVPAAAKPLIPAGGGAASVSRTLKTAVDLLSVARKTPGAMLGQVAAVVATMAVSSFWPKLNNGERQASFAIPVAELSPPLAVDWQAIAAAKGTVDLPYRLKTLNVDGSIQIIAVPTEPGSAAVPVRALTLDSASGTYKYTTTGPGGGTILVTPDTPPGQIDPSSSTPAVPRGPLIMPGTLLIPKEPQIESYPELDQREFNDGIYVYPEDSGIPPLYIVYRDPRDEPGVATGNGQPVTGNWLAGASQGDGVPIPSQIADQLRGKEFKSWRDFREQFWMAVSKDPSALENLSPSNRYFVSQGLAPYAVPEEHLGSKEKFEIHHVVPLESGGALYNIDNLVIVTPKRHSEIHKELKLKRKEK | survived until the endpoint of the experiment at 24 h post-infection | ~130 | ~650 fold | 30 | 319 | five out of six | No colonies | significantly reduced bacterial numbers | survived until the endpoint of the experiment at 24 h | survival / protection ([3]; pyocin 3 mg ml^−1, endpoint 24 h, infected controls culled at 4.5 h): successful; bacterial count in lung, P5 ([3]; pyocin 3 mg ml^−1, treated mice survived to 24 h, no treatment 1.7 × 10^5 CFU/lung): No colonies; bacterial count in lung, P17 (P. aeruginosa P17; 1 mouse that coughed up the treatment, culled at 4 h post-infection): ^+1 mouse coughed up AP41 treatment and was culled at 4 h post-infection, bacterial count 1.3 × 10^5 CFU/lung.; reduction of viable bacteria in lung homogenates relative to control mice (P. aeruginosa E2 [4]; pyocin 3 mg ml^−1, culled at 5.5 h post-infection): 10 fold; survival / protection (P. aeruginosa E2 [4]; pyocin 3 mg ml^−1, endpoint 24 h, infected controls culled at 5.5 h): failed to afford protection; bacterial count in lung, E2 (P. aeruginosa E2 [4]; pyocin 3 mg ml^−1, mice culled at same time as control (5.5 h post-infection)): 1.3 × 10^4 CFU/lung; increased tolerance of isolate P8AP41T (P8AP41T [5]; single isolate from pyocin AP41 (3 mg ml^−1 post-infection) treated bacteria): approximately 1000 fold; susceptibility of P8AP41T during infection (P8AP41T [5]; strain recovered from untreated control mice (P8AP41T*), FIG. 3a): remained tolerant; strains against which active [6]: 87% |
